Experiment [1] has as its target T1, extracellular domain of human LEPR, GPI-anchored, on HEK293/hLEPR-GPI cells (human, UniProt P48357 22-839, GPI anchor at the C-terminus ; GPI anchor at the C-terminus, added through the carboxypeptidase M signal peptide. The N-terminal myc-myc tag is not written.).
T1 sequence: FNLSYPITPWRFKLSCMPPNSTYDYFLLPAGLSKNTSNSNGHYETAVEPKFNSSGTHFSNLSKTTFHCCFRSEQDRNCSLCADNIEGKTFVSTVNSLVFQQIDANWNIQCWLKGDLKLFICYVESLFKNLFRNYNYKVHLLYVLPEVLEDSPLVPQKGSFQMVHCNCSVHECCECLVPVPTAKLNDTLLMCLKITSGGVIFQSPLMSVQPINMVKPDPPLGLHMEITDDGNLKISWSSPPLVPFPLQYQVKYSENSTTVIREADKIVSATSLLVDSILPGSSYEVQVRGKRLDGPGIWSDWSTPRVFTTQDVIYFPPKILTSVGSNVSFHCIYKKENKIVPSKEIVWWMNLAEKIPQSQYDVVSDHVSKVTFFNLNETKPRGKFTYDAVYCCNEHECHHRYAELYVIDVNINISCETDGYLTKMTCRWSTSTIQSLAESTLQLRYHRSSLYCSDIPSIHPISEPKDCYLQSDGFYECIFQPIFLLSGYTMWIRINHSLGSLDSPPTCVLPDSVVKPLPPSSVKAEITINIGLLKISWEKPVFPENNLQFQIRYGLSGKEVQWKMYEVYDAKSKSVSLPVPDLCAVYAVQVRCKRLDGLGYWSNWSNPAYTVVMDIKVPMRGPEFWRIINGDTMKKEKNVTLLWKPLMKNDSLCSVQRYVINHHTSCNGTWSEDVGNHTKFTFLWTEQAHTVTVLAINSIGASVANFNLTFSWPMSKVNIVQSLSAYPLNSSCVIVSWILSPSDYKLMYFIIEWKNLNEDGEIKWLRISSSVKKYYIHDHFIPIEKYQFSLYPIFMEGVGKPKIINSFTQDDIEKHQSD
Briefly: FACS, 200 nM antibody on HEK293/hLEPR-GPI cells, 1 µM Leptin. The procedure: For the FACS analysis, 0.5×10^6 cells/well of HEK293 parental cells, HEK293/Stat3-luc/gp130-2 X Sort cells, and HEK293/hLEPR-GPI cells, were incubated with 200 nM of the conventional antibodies against either GP130 or LEPR or with LEPRxGP130 bispecific antibodies, along with isotype control antibodies at 4° C. in PBS (without calcium and magnesium) containing 2% FBS.
Cells were fixed using BD CytoFix™ (Becton Dickinson, #554655) and analyzed on an IQue® (Intellicyt) Flow Cytometer. Unstained and secondary antibody alone controls were also tested for all cell lines. The results were analyzed using ForeCyt® (IntelliCyt) and FlowJo version 10 softwares to determine the geometric means of fluorescence for viable cells.
(A flow cytometer gives signals particle by particle.)

The target of experiment [2] is T2, Macaca Fascicularis GP130 extracellular domain expressed with a C-terminal myc-myc-hexahistidine tag (Macaca fascicularis, UniProt P40189 23-619 (human entry)).
T2 construct: also called mfGP130-MMH; mfGP130-mmH
T2 chain: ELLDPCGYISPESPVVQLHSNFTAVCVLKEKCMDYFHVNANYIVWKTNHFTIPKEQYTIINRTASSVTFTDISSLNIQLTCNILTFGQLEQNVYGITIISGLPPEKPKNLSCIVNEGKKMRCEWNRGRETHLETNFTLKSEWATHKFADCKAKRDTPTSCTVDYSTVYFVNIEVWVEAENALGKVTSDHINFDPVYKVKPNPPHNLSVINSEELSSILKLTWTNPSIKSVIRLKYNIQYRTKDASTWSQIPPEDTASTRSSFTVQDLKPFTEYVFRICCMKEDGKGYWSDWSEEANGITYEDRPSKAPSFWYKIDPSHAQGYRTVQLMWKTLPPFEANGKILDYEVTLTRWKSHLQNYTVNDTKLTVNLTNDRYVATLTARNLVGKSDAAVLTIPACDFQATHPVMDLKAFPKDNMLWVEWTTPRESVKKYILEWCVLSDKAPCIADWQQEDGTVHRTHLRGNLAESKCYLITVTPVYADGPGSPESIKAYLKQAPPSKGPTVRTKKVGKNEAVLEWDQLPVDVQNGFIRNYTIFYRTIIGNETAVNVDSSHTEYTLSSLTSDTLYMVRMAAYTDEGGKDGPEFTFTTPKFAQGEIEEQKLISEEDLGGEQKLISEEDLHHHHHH
In words: SPR, bsAb captured by anti-hFc, 25C. An outline of the steps:
(§1)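 Anti-hFc-captured bispecific antibodies received 3-fold serial dilutions of LEPR or GP130 (100 nM–3.7 nM) in HBS-ET, pH 7.4, injected for 4 min with 10 min dissociation at 25 °C or 37 °C. ka and kd came from a 1:1 binding model with mass transport limitation, and KD and t½ were calculated from these rate constants.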
For orientation: In SPR one partner is held on a chip, and binding of the other changes the refractive index at the surface.

In experiment [3] the target is T3, human GP130 extracellular domain expressed with a C-terminal myc-myc-hexahistidine tag (human, UniProt P40189 23-619).
T3 construct: also called hGP130-MMH; hGP130-mmH
In words: SPR, bsAb captured by anti-hFc, 25C. An outline of the steps:
as §1

Experiment [4] concerns the target T3, human GP130 extracellular domain …. In words: SPR, bsAb captured by anti-hFc, 37C. An outline of the steps:
as §1

B1: bsAb21236D (bispecific antibody, V domains shown)
VH 1: QVQLQESGPGLVKPSQTLSLTCTVSGGSISSGGDYWSWIRQLPGKGLEWIGYIYYSGSAYYNPSLKSRGTISIDTSKNQFSLKLTSVTAADTAVYFCVKLRFLEWFLGGWFGPWGQGTLVTVSS
VH 2: QVQLVESGGGLVKPGGSLRLSCAASGFTFSDYYMTWIRQTPGKGLDWVSYISSSGTNKYNADSVKGRFTISRDNAKNSLYLQMNSLRAEDTAVYYCVRDPPWGMDVWGQGTTVTVSS
VL: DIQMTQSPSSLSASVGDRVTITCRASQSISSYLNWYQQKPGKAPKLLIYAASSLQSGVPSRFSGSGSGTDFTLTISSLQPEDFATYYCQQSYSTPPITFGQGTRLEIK
notes: LEPR x GP130 bispecific with common light chain; also called H4H21236D; bsAb21236 (LEPR × GP130)
With B1, the “Binding Ratio, normalized to unstained sample (FL4-A)” value in experiment [1] is 3600 fold. In experiment [2], the “100 nM mfGP130-MMH Bound (RU)” value was found to be 21 RU, the Kd worked out at 104 nM, the koff was 0.00305 s⁻¹ and the kon was 29400 M⁻¹ s⁻¹. The t½ in experiment [2] is 3.8 min. In addition, in experiment [3], the “100 nM hGP130-MMH Bound (RU)” value stood at 12 RU, the Kd is 140 nM, the koff turned out to be 0.00426 s⁻¹ and the kon turned out to be 30300 M⁻¹ s⁻¹. The t½ in experiment [3] worked out at 2.7 min. Moreover, in experiment [4], the “100 nM hGP130-MMH Bound (RU)” value was 12 RU, binding was characterised by a dissociation constant (Kd) of 248 nM, the koff turned out to be 0.0148 s⁻¹ and the kon worked out at 59700 M⁻¹ s⁻¹. Besides, the t½ in experiment [4] turned out to be 0.8 min.

B2: bsAb21237D (bispecific antibody, V domains shown)
VH 1: EVQLVESGGGLVQPGGSLRLSCAASGFTFSNYGMTWVRQAPGKGLEWVSAITGGGGSTYYSNSVKGRFTISRDNSKNTVYLRMNSVRAEDTAVYYCAKYKWNFVDDWGQGTTVTVSS
VH 2: QVQLVESGGGLVKPGGSLRLSCAASGFTFSDYYMTWIRQTPGKGLDWVSYISSSGTNKYNADSVKGRFTISRDNAKNSLYLQMNSLRAEDTAVYYCVRDPPWGMDVWGQGTTVTVSS
VL: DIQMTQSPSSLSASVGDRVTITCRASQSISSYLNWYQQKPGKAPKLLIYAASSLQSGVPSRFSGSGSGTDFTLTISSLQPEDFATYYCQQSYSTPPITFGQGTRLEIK
notes: LEPR x GP130 bispecific with common light chain; also called H4H21237D; bsAb21237 (LEPR × GP130)
For B2, in experiment [1], the “Binding Ratio, normalized to unstained sample (FL4-A)” value came out at 5930 fold. In experiment [2], the “100 nM mfGP130-MMH Bound (RU)” value is 18 RU, the Kd stood at 53.4 nM, the koff amounted to 0.00213 s⁻¹ and the kon was found to be 39800 M⁻¹ s⁻¹. This molecule also returned a t½ in experiment [2] of 5 min. Further, in experiment [3], the “100 nM hGP130-MMH Bound (RU)” value amounted to 17 RU, the Kd was found to be 55.2 nM, the koff is 0.00274 s⁻¹ and the kon worked out at 49600 M⁻¹ s⁻¹. For the same molecule, in experiment [3], the t½ was found to be 4 min. In experiment [4], the “100 nM hGP130-MMH Bound (RU)” value worked out at 19 RU, binding was put at a Kd of 144 nM, the koff was 0.00879 s⁻¹ and the kon amounted to 61100 M⁻¹ s⁻¹. Moreover, the t½ in experiment [4] stood at 1.3 min.

As usually defined, the Kd is the equilibrium constant for the complex coming apart. For orientation: koff means the first-order rate constant of dissociation. A low value points to slow dissociation. As a reminder, the kon is the second-order rate constant of association. One may read the t½ as the time in which the quantity being followed falls by half.
